First the molecules themselves.
B1: CD3ε(1-27)-aCD3-aHER2-Xbody (bispecific antibody)
chain 1: not shown
chain 2: QDGNEEMGGITQTPYKVSISGTTVILTGGGGSGGGGSGGGGSEVQLVESGGGLVQPGGSLKLSCAASGFTFNSYAMNWVRQAPGKGLEWVARIRSKYNNYATYYADSVKGRFTISRDDSKNTAYLQMNNLKTEDTAVYYCVRHGNFGNSYVSWWAYWGQGTLVTVSSGGGGSGGGGSELVMTQTPSSLSASLGDRVTISCRASQDISNYLNWYQQKPDGTVKLLIYYTSRLHSGVPSRFSGSGSGTDYSLTISNLEQEDIATYFCQQGNTLPLTFGAGTKLEIKASTKGPSVFPLAPCSRSTSESTAALGCLVKDYFPEPVTVSWNSGALTSGVHTFPAVLQSSGLYSLSSVVTVPSSNFGTQTYTCNVDHKPSNTKVDKTVGGGGSAAAEPKSSDKTHTCPPCPAPEAAGGPSVFLFPPKPKDTLMISRTPEVTCVVVDVSHEDPEVKFNWYVDGVEVHNAKTKPREEQYNSTYRVVSVLTVLHQDWLNGKEYKCKVSNKALPAPIEKTISKAKGQPREPQVYTLPPSREEMTKNQVSLTCLVKGFYPSDIAVEWESNGQPENNYDTTPPVLDSDGSFFLYSDLTVDKSRWQQGNVFSCSVMHEALHNHYTQKSLSLSPGK
B2: CD3ε(1-27)-FURINcsV1-aCD3-aHER2-Xbody (bispecific antibody)
chain 1: not shown
chain 2: QDGNEEMGGITQTPYKVSISGTTVILTGGGGSGGGGSGGGGSRRRRREVQLVESGGGLVQPGGSLKLSCAASGFTFNSYAMNWVRQAPGKGLEWVARIRSKYNNYATYYADSVKGRFTISRDDSKNTAYLQMNNLKTEDTAVYYCVRHGNFGNSYVSWWAYWGQGTLVTVSSGGGGSGGGGSELVMTQTPSSLSASLGDRVTISCRASQDISNYLNWYQQKPDGTVKLLIYYTSRLHSGVPSRFSGSGSGTDYSLTISNLEQEDIATYFCQQGNTLPLTFGAGTKLEIKASTKGPSVFPLAPCSRSTSESTAALGCLVKDYFPEPVTVSWNSGALTSGVHTFPAVLQSSGLYSLSSVVTVPSSNFGTQTYTCNVDHKPSNTKVDKTVGGGGSAAAEPKSSDKTHTCPPCPAPEAAGGPSVFLFPPKPKDTLMISRTPEVTCVVVDVSHEDPEVKFNWYVDGVEVHNAKTKPREEQYNSTYRVVSVLTVLHQDWLNGKEYKCKVSNKALPAPIEKTISKAKGQPREPQVYTLPPSREEMTKNQVSLTCLVKGFYPSDIAVEWESNGQPENNYDTTPPVLDSDGSFFLYSDLTVDKSRWQQGNVFSCSVMHEALHNHYTQKSLSLSPGK
B3: CD3ε(1-27)-MMP-2csV2-aCD3-aHER2-Xbody, digested with MMP-2 (bispecific antibody)
chain 1: not shown
chain 2: MLSQSEVQLVESGGGLVQPGGSLKLSCAASGFTFNSYAMNWVRQAPGKGLEWVARIRSKYNNYATYYADSVKGRFTISRDDSKNTAYLQMNNLKTEDTAVYYCVRHGNFGNSYVSWWAYWGQGTLVTVSSGGGGSGGGGSELVMTQTPSSLSASLGDRVTISCRASQDISNYLNWYQQKPDGTVKLLIYYTSRLHSGVPSRFSGSGSGTDYSLTISNLEQEDIATYFCQQGNTLPLTFGAGTKLEIKASTKGPSVFPLAPCSRSTSESTAALGCLVKDYFPEPVTVSWNSGALTSGVHTFPAVLQSSGLYSLSSVVTVPSSNFGTQTYTCNVDHKPSNTKVDKTVGGGGSAAAEPKSSDKTHTCPPCPAPEAAGGPSVFLFPPKPKDTLMISRTPEVTCVVVDVSHEDPEVKFNWYVDGVEVHNAKTKPREEQYNSTYRVVSVLTVLHQDWLNGKEYKCKVSNKALPAPIEKTISKAKGQPREPQVYTLPPSREEMTKNQVSLTCLVKGFYPSDIAVEWESNGQPENNYDTTPPVLDSDGSFFLYSDLTVDKSRWQQGNVFSCSVMHEALHNHYTQKSLSLSPGK
B4: CD3ε(1-27)-MMP-2csV3-aCD3-aHER2-Xbody (bispecific antibody)
chain 1: not shown
chain 2: QDGNEEMGGITQTPYKVSISGTTVILTGGGGSGGGGSGGGGSPLGLAGEVQLVESGGGLVQPGGSLKLSCAASGFTFNSYAMNWVRQAPGKGLEWVARIRSKYNNYATYYADSVKGRFTISRDDSKNTAYLQMNNLKTEDTAVYYCVRHGNFGNSYVSWWAYWGQGTLVTVSSGGGGSGGGGSELVMTQTPSSLSASLGDRVTISCRASQDISNYLNWYQQKPDGTVKLLIYYTSRLHSGVPSRFSGSGSGTDYSLTISNLEQEDIATYFCQQGNTLPLTFGAGTKLEIKASTKGPSVFPLAPCSRSTSESTAALGCLVKDYFPEPVTVSWNSGALTSGVHTFPAVLQSSGLYSLSSVVTVPSSNFGTQTYTCNVDHKPSNTKVDKTVGGGGSAAAEPKSSDKTHTCPPCPAPEAAGGPSVFLFPPKPKDTLMISRTPEVTCVVVDVSHEDPEVKFNWYVDGVEVHNAKTKPREEQYNSTYRVVSVLTVLHQDWLNGKEYKCKVSNKALPAPIEKTISKAKGQPREPQVYTLPPSREEMTKNQVSLTCLVKGFYPSDIAVEWESNGQPENNYDTTPPVLDSDGSFFLYSDLTVDKSRWQQGNVFSCSVMHEALHNHYTQKSLSLSPGK
B5: CD3ε(1-27)-MMP-2csV2-aCD3-aHER2-Xbody (bispecific antibody)
chain 1: not shown
chain 2: QDGNEEMGGITQTPYKVSISGTTVILTGGGGSGGGGSGGGGSGGPLGMLSQSEVQLVESGGGLVQPGGSLKLSCAASGFTFNSYAMNWVRQAPGKGLEWVARIRSKYNNYATYYADSVKGRFTISRDDSKNTAYLQMNNLKTEDTAVYYCVRHGNFGNSYVSWWAYWGQGTLVTVSSGGGGSGGGGSELVMTQTPSSLSASLGDRVTISCRASQDISNYLNWYQQKPDGTVKLLIYYTSRLHSGVPSRFSGSGSGTDYSLTISNLEQEDIATYFCQQGNTLPLTFGAGTKLEIKASTKGPSVFPLAPCSRSTSESTAALGCLVKDYFPEPVTVSWNSGALTSGVHTFPAVLQSSGLYSLSSVVTVPSSNFGTQTYTCNVDHKPSNTKVDKTVGGGGSAAAEPKSSDKTHTCPPCPAPEAAGGPSVFLFPPKPKDTLMISRTPEVTCVVVDVSHEDPEVKFNWYVDGVEVHNAKTKPREEQYNSTYRVVSVLTVLHQDWLNGKEYKCKVSNKALPAPIEKTISKAKGQPREPQVYTLPPSREEMTKNQVSLTCLVKGFYPSDIAVEWESNGQPENNYDTTPPVLDSDGSFFLYSDLTVDKSRWQQGNVFSCSVMHEALHNHYTQKSLSLSPGK
B6: CD3ε(1-27)-FURINcsV2-aCD3-aHER2-Xbody (bispecific antibody)
chain 1: not shown
chain 2: QDGNEEMGGITQTPYKVSISGTTVILTGGGGSGGGGSGGGGSGQSSRHRRALEVQLVESGGGLVQPGGSLKLSCAASGFTFNSYAMNWVRQAPGKGLEWVARIRSKYNNYATYYADSVKGRFTISRDDSKNTAYLQMNNLKTEDTAVYYCVRHGNFGNSYVSWWAYWGQGTLVTVSSGGGGSGGGGSELVMTQTPSSLSASLGDRVTISCRASQDISNYLNWYQQKPDGTVKLLIYYTSRLHSGVPSRFSGSGSGTDYSLTISNLEQEDIATYFCQQGNTLPLTFGAGTKLEIKASTKGPSVFPLAPCSRSTSESTAALGCLVKDYFPEPVTVSWNSGALTSGVHTFPAVLQSSGLYSLSSVVTVPSSNFGTQTYTCNVDHKPSNTKVDKTVGGGGSAAAEPKSSDKTHTCPPCPAPEAAGGPSVFLFPPKPKDTLMISRTPEVTCVVVDVSHEDPEVKFNWYVDGVEVHNAKTKPREEQYNSTYRVVSVLTVLHQDWLNGKEYKCKVSNKALPAPIEKTISKAKGQPREPQVYTLPPSREEMTKNQVSLTCLVKGFYPSDIAVEWESNGQPENNYDTTPPVLDSDGSFFLYSDLTVDKSRWQQGNVFSCSVMHEALHNHYTQKSLSLSPGK
B7: CD3ε(1-27)-MMP-2csV3-aCD3-aHER2-Xbody, digested with MMP-2 (bispecific antibody)
chain 1: not shown
chain 2: LAGEVQLVESGGGLVQPGGSLKLSCAASGFTFNSYAMNWVRQAPGKGLEWVARIRSKYNNYATYYADSVKGRFTISRDDSKNTAYLQMNNLKTEDTAVYYCVRHGNFGNSYVSWWAYWGQGTLVTVSSGGGGSGGGGSELVMTQTPSSLSASLGDRVTISCRASQDISNYLNWYQQKPDGTVKLLIYYTSRLHSGVPSRFSGSGSGTDYSLTISNLEQEDIATYFCQQGNTLPLTFGAGTKLEIKASTKGPSVFPLAPCSRSTSESTAALGCLVKDYFPEPVTVSWNSGALTSGVHTFPAVLQSSGLYSLSSVVTVPSSNFGTQTYTCNVDHKPSNTKVDKTVGGGGSAAAEPKSSDKTHTCPPCPAPEAAGGPSVFLFPPKPKDTLMISRTPEVTCVVVDVSHEDPEVKFNWYVDGVEVHNAKTKPREEQYNSTYRVVSVLTVLHQDWLNGKEYKCKVSNKALPAPIEKTISKAKGQPREPQVYTLPPSREEMTKNQVSLTCLVKGFYPSDIAVEWESNGQPENNYDTTPPVLDSDGSFFLYSDLTVDKSRWQQGNVFSCSVMHEALHNHYTQKSLSLSPGK
B8: aCD3-aHER2-mxb (bispecific antibody)
chain 1: EVQLLEQSGAELVRPGALVKLSCKASGFKIKDYFVNWVKQRPEQGLEWIGWIDPENDNSLYGPNFQDKASITADTSSNTGYLQLSGLTSEDTAVYYCALYYGSRGDAMDYWGQGTTVTVSSGGGGSGGGGSGGGGSELVMTQTPSSLSASLGDRVTISCRASQDISNYLNWYQQKPDGTVKLLIYYTSRLHSGVPSRFSGSGSGTDYSLTISNLEQEDIATYFCQQGNTLPLTFGAGTKLEIKAAAEPKSSDKTHTCPPCPAPEAAGGPSVFLFPPKPKDTLMISRTPEVTCVVVDVSHEDPEVKFNWYVDGVEVHNAKTKPREEQYNSTYRVVSVLTVLHQDWLNGKEYKCKVSNKALPAPIEKTISKAKGQPREPQVYTLPPSRKEMTKNQVSLTCLVKGFYPSDIAVEWESNGQPENNYKTTPPVLKSDGSFFLYSKLTVDKSRWQQGNVFSCSVMHEALHNHYTQKSLSLSPGKAAAHHHHHH
chain 2: not shown
B9: aCD3-aHER2-Xbody (bispecific antibody)
chain 1: not shown
chain 2: EVQLVESGGGLVQPGGSLKLSCAASGFTFNSYAMNWVRQAPGKGLEWVARIRSKYNNYATYYADSVKGRFTISRDDSKNTAYLQMNNLKTEDTAVYYCVRHGNFGNSYVSWWAYWGQGTLVTVSSGGGGSGGGGSELVMTQTPSSLSASLGDRVTISCRASQDISNYLNWYQQKPDGTVKLLIYYTSRLHSGVPSRFSGSGSGTDYSLTISNLEQEDIATYFCQQGNTLPLTFGAGTKLEIKASTKGPSVFPLAPCSRSTSESTAALGCLVKDYFPEPVTVSWNSGALTSGVHTFPAVLQSSGLYSLSSVVTVPSSNFGTQTYTCNVDHKPSNTKVDKTVGGGGSAAAEPKSSDKTHTCPPCPAPEAAGGPSVFLFPPKPKDTLMISRTPEVTCVVVDVSHEDPEVKFNWYVDGVEVHNAKTKPREEQYNSTYRVVSVLTVLHQDWLNGKEYKCKVSNKALPAPIEKTISKAKGQPREPQVYTLPPSREEMTKNQVSLTCLVKGFYPSDIAVEWESNGQPENNYDTTPPVLDSDGSFFLYSDLTVDKSRWQQGNVFSCSVMHEALHNHYTQKSLSLSPGK

The target in the test is HER2 (human, UniProt P04626 23-1255). The experiment in a line: cell-based or functional assay.
Regarding B1, the “EC50 Cytolysis (ng/mL), +MMP2; TDCC of SKOV-3 cells with pan T cells” value (“EC50 Cytolysis (ng/mL), +MMP2; TDCC” below) is 6.73 ng/mL and the “EC50 Cytolysis (ng/mL), -MMP2; TDCC of SKOV-3 cells with pan T cells” value (“EC50 Cytolysis (ng/mL), -MMP2; TDCC” for short) worked out at 6.12 ng/mL.

As for B2, the “EC50 Cytolysis (ng/mL), +MMP2; TDCC” value turned out to be 0.332 ng/mL and the “EC50 Cytolysis (ng/mL), -MMP2; TDCC” value is 0.276 ng/mL.

As for B3, the “EC50 Cytolysis (ng/mL), +MMP2; TDCC” value amounted to 0.22 ng/mL.

Turning to B4, the “EC50 Cytolysis (ng/mL), -MMP2; TDCC” value came to 5.49 ng/mL.

Turning to B5, the “EC50 Cytolysis (ng/mL), -MMP2; TDCC” value is 2.62 ng/mL.

With B6, the “EC50 Cytolysis (ng/mL), +MMP2; TDCC” value is 0.256 ng/mL and the “EC50 Cytolysis (ng/mL), -MMP2; TDCC” value was determined as 0.112 ng/mL.

Consider B7, for which the “EC50 Cytolysis (ng/mL), +MMP2; TDCC” value turned out to be 0.205 ng/mL.

In the case of B8, the “EC50 Cytolysis (ng/mL), -MMP2; TDCC” value worked out at 0.184 ng/mL.

In the case of B9, the “EC50 Cytolysis (ng/mL), -MMP2; TDCC” value was 0.128 ng/mL.

(Values after patent US20170247476A1 (Amgen, published 2017).)
